The record followed here is the Immune Epitope Database (IEDB).

A value given as a limit tells only on which side of the number the result lay.

In one test the target is HLA-A*68:23. Nature of the test: IEDB peptide-MHC binding, purified MHC/competitive/fluorescence; filed as Kd, often an IC50 or EC50 that approximates it; ≥ and ≤ were set here for values at or beyond the usual limits of such assays. The settings on record: source organism: Brucella canis ATCC 23365.
A further test has as its target HLA-B*15:42. Described as above. The note with it: source organism: Brucella canis ATCC 23365.
The next test addresses HLA-B*83:01. Described as above. The settings on record: source organism: Brucella canis ATCC 23365.
A further test deals with HLA-B*44:02. The description is as above.
In another test the target is HLA-A*24:03. The test is described as above. The note with it: source organism: Brucella canis ATCC 23365.
The next test addresses HLA-B*53:01. Described as above.
A further test addresses HLA-B*40:01. The test is described as above.
Test [1] concerns the target HLA-B*07:02. The test is described as above.
The target of another test is HLA-B*45:06. Described as above. The settings on record: source organism: Brucella canis ATCC 23365.
Another test has as its target HLA-A*23:01. The description is as above.
The next test concerns the target HLA-B*14:02. Described as above.
Test [2] addresses HLA-A*11:01. The test is described as above.
The next test deals with HLA-B*08:01. The test is described as above.
Test [3] has as its target HLA-A*01:01. The test is described as above.
Another test has as its target HLA-A*30:01. The description is as above.
In a further test the target is HLA-A*30:02. Described as above.
Test [4] deals with HLA-B*58:01. The description is as above.
Test [5] deals with HLA-B*39:01. The description is as above. The note with it: source organism: Brucella canis ATCC 23365.
A further test has as its target HLA-B*51:01. Nature of the test: IEDB peptide-MHC binding, purified MHC/direct/fluorescence; filed as Kd, often an IC50 or EC50 that approximates it; ≥ and ≤ were set here for values at or beyond the usual limits of such assays. The settings on record: source organism: Brucella suis 1330.
The target of a further test is HLA-A*29:02. The test is described as above. The settings on record: source organism: Brucella suis 1330.
In test [6] the target is HLA-A*66:01. The test is described as above. The note with it: source organism: Brucella suis 1330.
The target in a further test is HLA-A*03:01. The description is as above.
The target of a further test is HLA-B*46:01. The test is described as above. The settings on record: source organism: Brucella suis 1330.
Another test deals with HLA-B*57:01. The test is described as above.
The next test has as its target HLA-B*27:03. The test is described as above. The settings on record: source organism: Brucella suis 1330.
For test [7], the target named is HLA-B*15:01. The test is described as above.
The next test addresses HLA-A*68:02. Described as above.
For the next test, the target named is HLA-B*18:01. The test is described as above.
Test [8] has as its target HLA-B*27:05. Nature of the test: IEDB peptide-MHC binding, purified MHC/competitive/fluorescence; filed as Kd, often an IC50 or EC50 that approximates it; ≥ and ≤ were set here for values at or beyond the usual limits of such assays. The settings on record: source organism: Escherichia coli 536.
Test [9] concerns the target HLA-A*66:01. The test is described as above. The note with it: source organism: Escherichia coli 536.
The target in test [10] is HLA-B*15:01. The description is as above. The note with it: source organism: Escherichia coli 536.
Another test deals with HLA-B*73:01. Nature of the test: IEDB peptide-MHC binding, purified MHC/direct/fluorescence; filed as Kd, often an IC50 or EC50 that approximates it; ≥ and ≤ were set here for values at or beyond the usual limits of such assays. The note with it: source organism: Bacillus anthracis.
The target of a further test is HLA-A*26:03. Described as above. The settings on record: source organism: Bacillus cereus H3081.97.
For test [11], the target named is HLA-B*27:05. Described as above. The settings on record: source organism: Bacillus anthracis.
The target in another test is HLA-A*02:01. Described as above. The note with it: source organism: Bacillus anthracis.
A further test concerns the target HLA-B*48:01. The test is described as above. The note with it: source organism: Bacillus anthracis.
The target of test [12] is HLA-B*07:02. The test is described as above. The note with it: source organism: Bacillus anthracis.
In a further test the target is HLA-A*31:01. Described as above. The note with it: source organism: Bacillus anthracis.
Test [13] deals with HLA-A*11:01. Described as above. The note with it: source organism: Bacillus anthracis.
The target in test [14] is HLA-A*01:01. Described as above. The settings on record: source organism: Bacillus anthracis.
The target of a further test is HLA-B*15:17. The description is as above. The settings on record: source organism: Bacillus anthracis.
The next test addresses HLA-A*69:01. The description is as above. The note with it: source organism: Bacillus anthracis.
The target in another test is HLA-A*26:02. The description is as above. The settings on record: source organism: Bacillus cereus H3081.97.
Test [15] concerns the target HLA-B*58:01. Described as above. The settings on record: source organism: Bacillus anthracis.
The target of test [16] is HLA-B*39:01. Described as above. The note with it: source organism: Bacillus cereus H3081.97.
[17] abbreviates: source organism: Brucella canis ATCC 23365.
[18] abbreviates: source organism: Brucella suis 1330.
[19] abbreviates: source organism: Escherichia coli 536.
[20] abbreviates: source organism: Bacillus anthracis.

As to ETVWPFFYA, the Kd (commonly the free concentration of one partner at which half of the binding sites on the other are occupied at equilibrium, for simple one-to-one binding) is 0.0013 µM with HLA-A*68:23; at least 5 µM in the test with HLA-B*15:42; at least 5 µM with HLA-B*83:01; at least 5 µM with HLA-B*44:02 (setting [17]); at least 5 µM in the test with HLA-A*24:03; at least 5 µM with HLA-B*53:01 (setting [17]). Further, the Kd with HLA-B*40:01 (setting [17]), in the test with HLA-B*07:02 [1] (setting [17]), in the test with HLA-B*45:06, with HLA-A*23:01 (setting [17]), in the test with HLA-B*14:02 (setting [17]) and with HLA-A*11:01 [2] (setting [17]) was at least 5 µM each time. Moreover, the Kd with HLA-B*08:01 (setting [17]), in the test with HLA-A*01:01 [3] (setting [17]), with HLA-A*30:01 (setting [17]), in the test with HLA-A*30:02 (setting [17]), with HLA-B*58:01 [4] (setting [17]) and with HLA-B*39:01 [5] was at least 5 µM each time. For the same sequence, the dissociation constant Kd is at least 20 µM with HLA-B*51:01; at least 20 µM in the test with HLA-A*29:02; 0.101 µM with HLA-A*66:01 [6]; at least 20 µM in the test with HLA-A*03:01 (setting [18]); at least 20 µM with HLA-B*46:01; at least 20 µM with HLA-B*57:01 (setting [18]). Also, the dissociation constant Kd is at least 20 µM with HLA-B*27:03, at least 20 µM with HLA-B*15:01 [7] (setting [18]), at most 0.001 µM in the test with HLA-A*68:02 (setting [18]) and at least 20 µM with HLA-B*18:01 (setting [18]).
On to YQAENSTAE, for which the Kd in the test with HLA-B*27:05 [8], in the test with HLA-B*44:02 (setting [19]), with HLA-B*53:01 (setting [19]), in the test with HLA-B*40:01 (setting [19]), in the test with HLA-B*07:02 [1] (setting [19]) and with HLA-A*23:01 (setting [19]) was at least 5 µM throughout. Further, the Kd with HLA-B*14:02 (setting [19]), with HLA-A*66:01 [9], in the test with HLA-A*11:01 [2] (setting [19]), with HLA-B*08:01 (setting [19]), with HLA-A*01:01 [3] (setting [19]) and with HLA-B*15:01 [10] was at least 5 µM in each case. Besides, the equilibrium dissociation constant (Kd) with HLA-A*30:01 (setting [19]), with HLA-A*30:02 (setting [19]) and with HLA-B*58:01 [4] (setting [19]) was at least 5 µM in each case.
As for PRFGSCYFL, the dissociation constant Kd with HLA-B*73:01 was at least 20 µM; with HLA-A*26:03, at least 20 µM; with HLA-B*27:05 [11] it was at least 20 µM; in the test with HLA-A*02:01, at least 20 µM; in the test with HLA-B*48:01, at least 20 µM; with HLA-B*07:02 [12], 2.72 µM. The Kd with HLA-A*31:01, in the test with HLA-A*03:01 (setting [20]), with HLA-A*11:01 [13], in the test with HLA-A*01:01 [14], with HLA-B*15:17 and in the test with HLA-B*57:01 (setting [20]) was at least 20 µM throughout. Besides, the Kd with HLA-B*15:01 [7] (setting [20]), in the test with HLA-A*68:02 (setting [20]), with HLA-A*69:01, with HLA-A*26:02, with HLA-B*18:01 (setting [20]) and with HLA-B*58:01 [15] was at least 20 µM throughout. In the test with HLA-B*39:01 [16], this sequence had a Kd of at least 20 µM.
